Results on 94 variants are retold here after the supplement of paper PMC10567573.

First the molecules themselves.
B1: TMEM106C (parent)
chain: YVTTNVSLIPPRSEQLVNFTGKAE
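Also: lentivirally expressed fusions sorted by FACS into six bins by GFP to DsRed ratio, PSI derived from sequencing read proportions per bin multiplied by bin number.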

In this series the parent is B1. The series can be described thus: protein stability index of a GFP-peptide fusion (GPS, HEK-293T) (PSI 1-6); higher = more stable. To be noted: c terminus: a fixed tail appended.
As for YVTTNVSLIPPRSMQLVNFTGKAE [E14M], the protein stability index was 2.26.

As for YVTTNVSLIPPRSPQLVNFTGKAE [E14P], the protein stability index amounted to 2.18. The value for YVTTNVSLIPPRSWQLVNFTGKAE [E14W] was 2. The value for YVTTNVSLIPPRSRQLVNFTGKAE [E14R] was 1.87; that for YVTTNVSLIPPRSHQLVNFTGKAE [E14H] was 1.92.

As for YVTTNVSLIPPRSQQLVNFTGKAE [E14Q], the protein stability index stood at 1.5. Then YVTTNVSLIPPRSVQLVNFTGKAE [E14V], with 2. Consider YVTTNVSLIPPRSIQLVNFTGKAE [E14I], for which the protein stability index was determined as 2.17. The value for YVTTNVSLIPPRSYQLVNFTGKAE [E14Y] was 2.19.

With YVTTNVSLIPPRSKQLVNFTGKAE [E14K], the protein stability index was determined as 2.16.

Turning to YVTTNVSLIPPRSSQLVNFTGKAE [E14S], the protein stability index was 1.79. On to YVTTNVSLIPPRSNQLVNFTGKAE [E14N], for which the protein stability index was 1.8. On to YVTTNVSLIPPRSLQLVNFTGKAE [E14L], for which the protein stability index was 2.27. The value for YVTTNVSLIPPRSTQLVNFTGKAE [E14T] was 2.79; that for YVTTNVSLIPPRSEQLGNFTGKAE [V17G] was 1.98.

As for YVTTNVSLIPPRSEQLPNFTGKAE [V17P], the protein stability index amounted to 2.31. The value for YVTTNVSLIPPRSEQLFNFTGKAE [V17F] was 2.88; that for YVTTNVSLIPPRSEQLSNFTGKAE [V17S] was 1.55. Consider YVTTNVSLIPPRSEQLENFTGKAE [V17E], for which the protein stability index came to 2.24.

For YVTTNVSLIPPRSEQLNNFTGKAE [V17N], the protein stability index amounted to 1.62.

In the case of YVTTNVSLIPPRSEQLQNFTGKAE [V17Q], the protein stability index was found to be 3.85. Then YVTTNVSLIPPRSEQLKNFTGKAE [V17K], with 2.83. Then YVTTNVSLIPPRSEQLANFTGKAE [V17A], with 1.84; and YVTTNVSLIPPRSEQLLNFTGKAE [V17L], with 2.3; and YVTTNVSLIPPRSEQLINFTGKAE [V17I], with 2.24. The value for YVTTNVSLIPPRSEQLTNFTGKAE [V17T] was 1.91; that for YVTTNVSLIPPRSEQLWNFTGKAE [V17W] was 3.01; that for YVTTNVSLIPPRSEQLCNFTGKAE [V17C] was 2.19. As for YVTTNVSLIPPRSEQLDNFTGKAE [V17D], the protein stability index stood at 2.2. As to YVTTNVSLIPPRSEQLRNFTGKAE [V17R], the protein stability index was found to be 1.41. The value for YVTTNVSLIPPRSEQLMNFTGKAE [V17M] was 2.04. Consider YVTTNVSLIPPRSEQLHNFTGKAE [V17H], for which the protein stability index stood at 2.1. Then YVTTNVSLIPPRSEQLYNFTGKAE [V17Y], with 2.44.

For YVTTNVSLIPPRSEQLVNFTGKVE [A23V], the protein stability index was 2.3. Then YVTTNVSLIPPRSEQLVNFTGKLE [A23L], with 1.31; and YVTTNVSLIPPRSEQLVNFTGKYE [A23Y], with 2.44; and YVTTNVSLIPPRSEQLVNFTGKRE [A23R], with 2.4. Then YVTTNVSLIPPRSEQLVNFTGKHE [A23H], with 2.47.

As for YVTTNVSLIPPRSEQLVNFTGKNE [A23N], the protein stability index was determined as 1.82. The value for YVTTNVSLIPPRSEQLVNFTGKFE [A23F] was 2.06. The value for YVTTNVSLIPPRSEQLVNFTGKIE [A23I] was 2.24. The value for YVTTNVSLIPPRSEQLVNFTGKEE [A23E] was 1.65; that for YVTTNVSLIPPRSEQLVNFTGKKE [A23K] was 2.23. With YVTTNVSLIPPRSEQLVNFTGKDE [A23D], the protein stability index stood at 2. As for YVTTNVSLIPPRSEQLVNFTGKPE [A23P], the protein stability index is 1.77. Then YVTTNVSLIPPRSEQLVNFTGKME [A23M], with 1.81. For the variant YVTTNVSLIPPRSEQLVNFTGKGE [A23G], the protein stability index was 1.91.

As for YVTTNVSLIPPRSEQLVNFTGKCE [A23C], the protein stability index is 1.84. The value for YVTTNVSLIPPRSEQLVNFTGKTE [A23T] was 1.8.

Turning to YVTTNVSLIPPRSEQLVNFTGKSE [A23S], the protein stability index was determined as 1.54.

For the variant YVTTNVSLIPPRSEQLVNFTGKQE [A23Q], the protein stability index came to 1.74. Then YVTTNVSLIPPRSEQLVNFTGKWE [A23W], with 2.51. The value for YVTTNVSLIPPRSEQLVNPTGKAE [F19P] was 2.03; that for YVTTNVSLIPPRSEQLVNGTGKAE [F19G] was 1.39. The value for YVTTNVSLIPPRSEQLVNDTGKAE [F19D] was 2.01; that for YVTTNVSLIPPRSEQLVNQTGKAE [F19Q] was 2.54. Turning to YVTTNVSLIPPRSEQLVNMTGKAE [F19M], the protein stability index came out at 1.9. For the variant YVTTNVSLIPPRSEQLVNYTGKAE [F19Y], the protein stability index was 1.9. Then YVTTNVSLIPPRSEQLVNHTGKAE [F19H], with 2.56; and YVTTNVSLIPPRSEQLVNITGKAE [F19I], with 2.02.

For the variant YVTTNVSLIPPRSEQLVNCTGKAE [F19C], the protein stability index worked out at 2.06. Consider YVTTNVSLIPPRSEQLVNNTGKAE [F19N], for which the protein stability index was determined as 2. Then YVTTNVSLIPPRSEQLVNKTGKAE [F19K], with 2.25. Take YVTTNVSLIPPRSEQLVNATGKAE [F19A]: the protein stability index was 2.03. Then YVTTNVSLIPPRSEQLVNETGKAE [F19E], with 2.7. With YVTTNVSLIPPRSEQLVNTTGKAE [F19T], the protein stability index is 2.65. Then YVTTNVSLIPPRSEQLVNWTGKAE [F19W], with 2.33. The value for YVTTNVSLIPPRSEQLVNVTGKAE [F19V] was 2.28; that for YVTTNVSLIPPRSEQLVNLTGKAE [F19L] was 1.96. Then YVTTNVSLIPPRSEQLVNRTGKAE [F19R], with 1.68.

In the case of YVTTNVSLIPPRSEQLVNSTGKAE [F19S], the protein stability index was 2.71. Then YVTTNVSLIPPRSEQLVNFTGKAD [E24D], with 2.58; and YVTTNVSLIPPRSEQLVNFTGKAA [E24A], with 2; and YVTTNVSLIPPRSEQLVNFTGKAC [E24C], with 2.32. YVTTNVSLIPPRSEQLVNFTGKAF [E24F]: the protein stability index was 2.81.

Take YVTTNVSLIPPRSEQLVNFGGKAE [T20G]: the protein stability index was 2.13. Then YVTTNVSLIPPRSEQLVNFPGKAE [T20P], with 2.29; and YVTTNVSLIPPRSEQLVNFFGKAE [T20F], with 2.31. The value for YVTTNVSLIPPRSEQLVNFQGKAE [T20Q] was 1.66.

Turning to YVTTNVSLIPPRSEQLVNFMGKAE [T20M], the protein stability index was 3.02. For the variant YVTTNVSLIPPRSEQLVNFEGKAE [T20E], the protein stability index stood at 2.09.

YVTTNVSLIPPRSEQLVNFWGKAE [T20W]: the protein stability index turned out to be 2.85. The value for YVTTNVSLIPPRSEQLVNFAGKAE [T20A] was 2.27; that for YVTTNVSLIPPRSEQLVNFRGKAE [T20R] was 2.19; that for YVTTNVSLIPPRSEQLVNFSGKAE [T20S] was 1.51. As to YVTTNVSLIPPRSEQLVNFHGKAE [T20H], the protein stability index turned out to be 1.86. The value for YVTTNVSLIPPRSEQLVNFVGKAE [T20V] was 1.84; that for YVTTNVSLIPPRSEQLVNFKGKAE [T20K] was 2.11; that for YVTTNVSLIPPRSEQLVNFDGKAE [T20D] was 1.95. The value for YVTTNVSLIPPRSEQLVNFNGKAE [T20N] was 1.53. Then YVTTNVSLIPPRSEQLVNFYGKAE [T20Y], with 2.86; and YVTTNVSLIPPRSEQLVNFLGKAE [T20L], with 1.99; and YVTTNVSLIPPRSEQLVNFCGKAE [T20C], with 2.34.

Turning to YVTTNVSLIPPRSEQLVNFIGKAE [T20I], the protein stability index is 2.08.
